This experiment concerns the target ASFV RNA polymerase subunit vRPB3-11 (African swine fever virus, strain BA71V, UniProt Q65184 1-359). In words: cryo-EM structure. Particulars: both partners purified.

ASFV RNA polymerase subunit vRPB3-11, sequence (Q65184 whole entry): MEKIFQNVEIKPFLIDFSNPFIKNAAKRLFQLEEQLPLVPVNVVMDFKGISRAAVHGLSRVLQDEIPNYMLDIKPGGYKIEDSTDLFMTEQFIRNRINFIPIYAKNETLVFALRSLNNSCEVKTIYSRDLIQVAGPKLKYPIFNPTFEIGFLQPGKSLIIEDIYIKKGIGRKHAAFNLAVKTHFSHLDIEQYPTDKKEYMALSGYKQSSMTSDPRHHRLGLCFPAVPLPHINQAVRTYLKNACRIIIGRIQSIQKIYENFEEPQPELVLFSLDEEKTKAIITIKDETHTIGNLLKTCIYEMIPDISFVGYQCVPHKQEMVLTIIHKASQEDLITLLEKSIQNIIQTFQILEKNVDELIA

B1: ASFV RNA polymerase subunit vRPB10 (natural protein)
chain: MLIPVVCFTCGFPIGTYAAIFDKARTEYIKTKMDGTLPQNIPLDASLQIELKDLITALGIPMRVCCRTHLITTLDYRKYY
Consider B1, for which the binding result was “binds”.
